The record followed here is the nanobody polyreactivity screen of Harvey et al. (2022).

This series is described as follows: yeast display, Sf9 membrane polyspecificity reagent, FACS + sequencing; frameworks hold sequencing errors. An outline of the steps:
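A nanobody's polyreactivity label depends on the gate it was sorted from. Yeast display cells were stained with 10% biotinylated, detergent-solubilized Sf9 membrane reagent for 1 hour at 4 °C, enriched on streptavidin microbeads and sorted by FACS. The low and high (top ~1%) gates were set on anti-HA fluorescence for expression and streptavidin fluorescence for reagent binding.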
Turning to “QVQLVESGGGLVQAGGSLRLSCAASGFILRWYAMGWYRQAPGKERELVAAISWSGGSTYYADSVKGRFTISRDNAKNTVYLQMNSLKPEDTAVYYCNAVNYRNKYDYWGQGTQVTVSS”, the “polyreactivity (PSR sort gate)” value was “high polyreactivity”.

“QGQRVESGGGLVQAGGSLRLSCAASGRIFRGYDMGWYRQSPGKERELVAAISGSGGSTYYADSVKGRFTISRDYAKNSVYLQMNSLQPEDTAVYYCAADQQSTGDWAGDYWGQGTQVTVSS”: the “polyreactivity (PSR sort gate)” value is on record as “low polyreactivity”. Take “QVQLVESGGGLVQAGGSLRLSCAASGFTFPWYAMVWYRQSPGKERELVASISYRGDSTYYADSVKGRFTISRDNAKNTVNLQMNILKPEDTAVYYCNKLLASYYLPGFDYWGQGTQVTVSS”: the “polyreactivity (PSR sort gate)” value is reported as “low polyreactivity”. “QVQLVESGGCLVQAGGSLRLSCAASGSIFGANTMGWYRQAPGKESELVAAISSGGNTYYADSVKGRFTISRDNAKNTVYLQMNSLKPEDTAVYYCNAQTRYRYQYGFLGGTGYNYWGQGTQVTVSS”: the “polyreactivity (PSR sort gate)” value was “low polyreactivity”. Regarding “QVQLVESGGGLVQAGGSLRLSCAASGRIFQYYVMGWYRQAPGKERELVARITYIGGGTYYADSVKGRFTMSRDNAKNTVYLQMNSLKPEDTAVYYWYARYPWREWEDDYWGQGTQVTVSS”, the “polyreactivity (PSR sort gate)” value is recorded as “low polyreactivity”. For the sequence “QVQLVESGGGLVQAGGSLRLSCAASGSIFADNAMGWYRQAPGKERELVAAITWSGGSTYYADSVKGRFTISRDNAKNTVYLQMNSLKPEDTAVYYCNADDAVEYSYGGGTEFYYWGQGTQVTVSS”, the “polyreactivity (PSR sort gate)” value is on record as “low polyreactivity”. Consider “QVQLVESGGGLVQAGGSLRLSCAASGIIFYEYTMGWYRQAPGKERELVARISLRGGNTYYADSVKGRFTISRDNAKNTVYLQMNSLKPEDTAVYYCNADLYRQYASRYHYWGQGTQVTVSS”, for which the “polyreactivity (PSR sort gate)” value is “high polyreactivity”. “QVQLVESGGGLVQAGGSLRLSCAASGYTFNYYAMGWYRQAPGKERELVAAIRSGGSTTYADSVKGRFTISRDNAKNTVYLQMNSLKPEDTAVYYCNADAGYWYRPAYDYWGQGTQVTVSS”: the “polyreactivity (PSR sort gate)” value was “low polyreactivity”. For “QVQLVESGGGLVQAGGSLRLSCAASGIIFDYYAMGWYRQAPGKERELVAAINRNGGTTYYADSVKGRFTISRDNAKNSVYLQMNSLKPEDTAVYYCAAVDFGWITYYYWGQGTQVTVAS”, the “polyreactivity (PSR sort gate)” value is on record as “high polyreactivity”. In the case of “QVQLVESGGRLVQAGGSLRLSGAASGIIFRTNAMGWSRQAPGKEREFVAAISAGGTRTYYADSVKGRFTISRDYAKNTVYLQMNSLKPEDTAVYFCAAASGYDYWGQGTQVTVSS”, the “polyreactivity (PSR sort gate)” value is “high polyreactivity”.

On to “QVQLVESGGGLVQAGGSLRLSCAASGRTFNRNAMGWYRQAPGKERELVAAISRGGGGTFYADSVKGRFTISRDNAKNTVYLQMNSLKPEDTAVYYCAAELYYWTYVRFDYWGQGTQVTVSS”, for which the “polyreactivity (PSR sort gate)” value is given as “low polyreactivity”. In the case of “QVQLVESGGGLFQAGGSLRLSCAASGRTFYYYAMGWYRQAPGKERELVASISRTGGPTSYADSVKGRFTISRDTAKNPVYLQMNSLKPEDTAVYYCATRRRVYSGYDYWGQGTQVTVSS” it was “high polyreactivity”; in that of “QVQLVESGGGLVQAGGSLRLSCAASGFTLARYAMGWYRQAPGKEREFVAAITNGGRTNYADSVKGRFTISRDNAKNTVYLQMNSLKPEDTAVYYCAARYRFGGIRRYNYWGQGTQVTVSS”, “high polyreactivity”; in that of “QVQLVESGGGLVQAGGSLRLSCAASGRIFDGYAMGWNRKAPGKERELVPAISGGGNTKYADSEKGRFTISRDNAKNTVYLQMNSLKPEDTAVYYCAARGYYYGYRFDSWGQGTQVTVSS”, “high polyreactivity”. In the case of “QVQLVESGGGLVQAGGSLRLSCAASGFIFDYYAMGWYRQAPGKERELVGAITSGDSTNYADSVKGRFTISRDNAKNTVYLQMNSLKPEDTAVYYWGQGTQVTVSS” it was “low polyreactivity”.

As to “QVQLVESGGGLVQAGGSLRLSCAASGSTSYDNAMGWYRQAPGKERELDASISSDGSTNYADSVKGRFTISRDNAKNTVYLQMNSLKPEDTAVYYCNVEVTRGLSHDPEYDYWGQGTQVTVSS”, the “polyreactivity (PSR sort gate)” value was “low polyreactivity”.

As to “QVQLVESGGGLVQAGGSLRLSCAASGSIFTYYAMGWYRQAPGKEREFVAAISRRGGSTYYADSVKGRFTISRDNAKNTVYLQMNSLKPEDTAVYYCAATYPYRGFYGIRSQFDYWGQGTQVTVSS”, the “polyreactivity (PSR sort gate)” value is “high polyreactivity”. For the sequence “QVQLVESGGGLVKAGGSLRLSCAAYGIIYYPYAMGRYRHAPGKEWELVAAIDRSGSSTYYADSVKGRFTISRDNAKNTVYVQMNSLKPEDTAVYYCAAAHTYFTAYGDYWGQGTQVTVSS”, the “polyreactivity (PSR sort gate)” value is on record as “low polyreactivity”.

On to “QDQLVDSGGGLVQAGGSLRLSCAASGSTFYYYTMGWYRQAPGKEGELVAAITSGGSTYYADSVKGRFTISRDNAKNTVYLQLNSLKPEDTAVYYCAADLRRNGWGFDYWGQGTQVTVSS”, for which the “polyreactivity (PSR sort gate)” value is “high polyreactivity”. Consider “QVQLVESGGGLVQAGGSLRLSCAASGSTFTAYAMGWYRHAPGKERELVAGITGNGGSTRYADSVKGRFTISRDNAKNTVYVQMNSLKPEDTAFYYCAARWTRQRYRTSYYSWGQGTQVTVSS”, for which the “polyreactivity (PSR sort gate)” value is reported as “high polyreactivity”. In the case of “QVQLVESGGGLVQAGGSLRLSCAASGLTFAVYAMGWYRQAPGKVRELVAAITYSGSRTYYADSVKGRFTISRDNAKNTVYLQMNSLKPEVTAVYYCNALYRRDIKFYYWGQGTQVTVSS”, the “polyreactivity (PSR sort gate)” value is reported as “high polyreactivity”. As for “QVQLVESGGGLVQAGGSLRLSCAASGSTFKTYTMGWYRQAPGKEREFVAGITSGGSTSYADSVKGRFTISRDNAKNTVYLQMNSLKQEDTAVYYCAAPDGDTSFSDQAYDYWGQGTQVTVSS”, the “polyreactivity (PSR sort gate)” value is “low polyreactivity”. “QVQLVESGGGLVQAGGSLRLSCAASGYIFANNAMGWYRQAPGKERELVAAISSSGGRTYYADSVKGRFTISRDNAKNTVYLQMNSLKPEDTAVYYCNKYGTALWRYYYWGQGTQVTVSS”: the “polyreactivity (PSR sort gate)” value is “high polyreactivity”. As to “QVQLVESGGGLLQAGGSLRLSCAASGINFSKYAMGWYRQAPGTERELVAVISASGGGTYYADSVKGRFTISRDNAKNTVYLQMNSLKPEDTAVYFCAADSSDVYDYWGQGTQVTVSS”, the “polyreactivity (PSR sort gate)” value was “high polyreactivity”. In the case of “QVQLVESGGGLVQAGGSLRLSCAASGLIIYYNAMGWYRQAPGKERELVAAITSGGSTYYADSVKGRFTISRDNAKNTVYLQMNSLKPEDTAVYYCAAVPASYRYPMYYWGQGTQVTVSS”, the “polyreactivity (PSR sort gate)” value is “low polyreactivity”.

Turning to “QVQLVESGGGLVQAGGSLRLSCAASGITFSYNVMGWYRQAPGKERELVAAISDGGSTYYADSVKGRFTISRDNAKNTVYLLMNSLKPEDTAVYDCAKGYPYTYSQQVIYDYYYWGQGTQVTVSS”, the “polyreactivity (PSR sort gate)” value is given as “low polyreactivity”. In the case of “QVQLVESGGGLVQAGGSLRLSCAASGITIPVYLGWYRQAPGKETELVAAISSGGSTYADSVKGRFTISRDNAKNTVYLQMNSLKPEDTAVYYCNADRWFGNYLHLTFLNDYWGQGTQVTVSS” it was “low polyreactivity”; in that of “QVQLVESGGGLVQAGGSLRLSCAASGSTFNDNAMGWYRQAPGKERELVAGISYSGGSTYYADSVKGRFTISRDHAKNTVYLQMNSLKPEDTAVYYCNADVTGLSQFGYWGQGTQVTVSS”, “low polyreactivity”. The result for “QVQLVESGGGLVQAGGSLRLSCAASGRTFAFYAMGWYRPAPGKERDLVASISSSGDRTYYADSVKGRFTISRDNAKNTVYLQMNSLKPEDTAVYYCNRVEGGAYGSNFDYWGQATQVTVSS” reads “high polyreactivity”; that for “QVQLVESGGGLVQAGGSLRLSCAASGSTFGKNAMGWYRQAPGKERELVAAITRGSGSTYYADSVKGRFTISRDNAKNTVYLQMNSLKPEDTAVYYCAARRYRLSTPEFNYWGQGTQVTVSS”, “high polyreactivity”; that for “QVQLVESGGGLVQAGGSLRLSCAPSGRIFTPYAMGWYRQAPGKERELVAVIRDGSTYYADSVKGRFTISRDNAKNTVYLKMNSLKPEDTAVYYCRYDIWVWWSGAYDYWGQGTQVNVSS”, “low polyreactivity”. As to “QVQLVESGGGLVQAGGSLRLSCAASGRIFATYAMGWYRQAPGKERELVAAISDSGGRTYYADSVKGRFTISRDNAKNTVYLQMNSLKPEDTAVYYCARRAVYGIFDYWGQGTQVTVSS”, the “polyreactivity (PSR sort gate)” value is on record as “high polyreactivity”. In the case of “QVQLVESGGGLVQAGGSLRLSCAASGFIVHTNTMGWYIQAPGKERELVAAMSSGGRTNYADSVKGRFTISRDNAKNTVYLQMNSLKPEDTAVYYCAADWHSWRWGYYYWGQGTQVTVSS”, the “polyreactivity (PSR sort gate)” value was “low polyreactivity”. The result for “QVQLVESGGGLVQAGGSLRLSCAASGSTFQTYVMGWYRQAPGKERELVAAITWSGGSTYYADSVKGRFTISRDNAKNTVYLQMNSLKPEDTAVYYCAARFPWRGGVKYSYYFQHDYWGQGTQVTVSS” reads “high polyreactivity”; that for “QVQLVESGGGLVQAGGSLRLSCAASGFTFDYNAMGWSRQAPGKERELVAAISYSDDSTYYADSVKGRFTISRDNAKNTVYLQMNSLKPEETAVYYCAAYFGAYGYDYWGQGSQVTVSS”, “low polyreactivity”. In the case of “HVQLVESGGGLVQAGGSLRLSCAASGGIFYGNVMGWYRQAPGKERELVADITSVGSTYYADSVKGRFTISRDNAKNTVYLQMNSLKPEDTAVYYCAAEPDHVADSHSGYDYWGQGTQVTVSS” it was “low polyreactivity”; in that of “QVQLVESGGGLVQAGGSLRLSCAASGSTFDYYDMGWYRQAPGKERELVATITSGGSTNYADSVKGRFTISRDNAKNTVYLQMNSLKPEDTAVYDCAADIGGDGEGYDYWGQGTQVTVSS”, “low polyreactivity”. For “QVQLVASGGGFVQAGGSLRVSCAASGGTILGNAMGWDRQAPGKERELVATITARVGSTYYADSVKGRFTISRDNAKNTVYLQMNSLKPEDTAVYYCAARKVWGYTYGYPYYYWGQGTQVTVSS”, the “polyreactivity (PSR sort gate)” value is reported as “high polyreactivity”. Turning to “QVQLVESAARLVQAGGSLRLSCAASGFTFKKYAMGWYRQAPGKARELVASITWSGGSTSYADSVKGRFTISRDTAKNTVYLLMNSLKPEDTAVYYCAAATFVYRLRYNRFDYWGQGTQETVSS”, the “polyreactivity (PSR sort gate)” value is recorded as “high polyreactivity”. For “QVHLVESGGGLVQAGGSLRLTCAASGRTFGWNVMGWYRQAPGKERELVAAISGSGGSTYYADSVKGRFTISRDNAKNTVYLQMNSLKPEDTAVYYCAALYGPGREYDYWGQGTQVTVSS”, the “polyreactivity (PSR sort gate)” value was “low polyreactivity”. With “QVQLVESGGGLVQAGGSLRLSCAASGRILGKYAMGWYRQSPGKERELVAAIRLRGGSTYYADSVKGRFTISRDNAKNTLYLQMNSLKPEDTAVYYCAARFWDRSQAYNYWGQGTQVTVSS”, the “polyreactivity (PSR sort gate)” value was “high polyreactivity”.
